# Laboratory results reported in patent US20260250769, “METHODS FOR DETERMINING THE PRESENCE OR RISK OF DEVELOPING FACIOSCAPULOHUMERAL DYSTROPHY (FSHD)” (Fred Hutchinson Cancer Center, published 2026).
# Legend:
# DUX4-s = DUX4-s (Homo sapiens); assay: EMSA; supershift with E14-3; details: tags: from pCS2-DUX4-s2, TNT SP6 wheat germ extract; label: 32P
# Protocol: (§1) EMSA was performed with ³²P-labeled 31-bp oligonucleotides from endogenous genomic sequences containing the putative DUX4 binding site as probes (sequences below; only forward shown). Radiolabeled probes were incubated with in vitro translated protein generated from pCS2-DUX4-fl or pCS2-DUX4-s² vectors using the TNT SP6 Coupled Wheat Germ Extract System (Promega) according to manufacturer's instructions. To obtain supershift of protein-DNA complexes, 0.1 μg of E14-3 anti-DUX4 rabbit monoclonal antibody was added to the mixtures. For competition experiments, excess unlabeled probes of either wild-type or mutant sequences were included in the binding reaction. The gels were prepared and run as previously described (Knoepfler et al., Nucleic Acids Res 27:3752-3761 (1999)).
# DUX4-fl [1] = molecular target: T1, DUX4-fl (Homo sapiens, UniProt Q9UBX2 SEQ:1-424); assay: EMSA; supershift with E14-3; cold self competitor reduces binding; details: tags: from pCS2-DUX4-fl, TNT SP6 wheat germ extract; label: 32P
# T1 sequence (Q9UBX2 whole entry): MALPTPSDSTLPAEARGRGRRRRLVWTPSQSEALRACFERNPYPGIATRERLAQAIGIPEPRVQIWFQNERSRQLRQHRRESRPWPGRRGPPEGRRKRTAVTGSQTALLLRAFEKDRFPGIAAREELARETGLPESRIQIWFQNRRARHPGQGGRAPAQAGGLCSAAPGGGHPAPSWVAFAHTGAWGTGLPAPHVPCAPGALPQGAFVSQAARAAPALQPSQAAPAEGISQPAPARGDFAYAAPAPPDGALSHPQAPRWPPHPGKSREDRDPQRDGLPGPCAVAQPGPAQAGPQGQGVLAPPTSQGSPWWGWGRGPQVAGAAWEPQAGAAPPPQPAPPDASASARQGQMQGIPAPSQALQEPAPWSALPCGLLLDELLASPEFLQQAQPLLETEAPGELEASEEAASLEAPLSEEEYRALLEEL
# Protocol: as §1
# DUX4-fl [2] = molecular target: T1, DUX4-fl; assay: competition; cold mutant does not compete with TRIM48 probe; details: tags: from pCS2-DUX4-fl, TNT SP6 wheat germ extract
# Protocol: as §1
# DUX4-fl [3] = molecular target: T1, DUX4-fl; assay: EMSA; cold self competitor inhibits binding; details: tags: from pCS2-DUX4-fl, TNT SP6 wheat germ extract; label: 32P
# Protocol: as §1
# DUX4-fl [4] = molecular target: T1, DUX4-fl; assay: competition; cold mutant does not compete with CSF1R probe; core printed as … in legend; details: tags: from pCS2-DUX4-fl, TNT SP6 wheat germ extract
# Protocol: as §1
# DUX4-fl [5] = molecular target: T1, DUX4-fl; assay: competition; cold mutant does not compete with THE1D probe; details: tags: from pCS2-DUX4-fl, TNT SP6 wheat germ extract
# Protocol: as §1
# Sequence of DUX4-s (Homo sapiens) (Q6RFH8 other isoform, or with tags, fused parts or gaps): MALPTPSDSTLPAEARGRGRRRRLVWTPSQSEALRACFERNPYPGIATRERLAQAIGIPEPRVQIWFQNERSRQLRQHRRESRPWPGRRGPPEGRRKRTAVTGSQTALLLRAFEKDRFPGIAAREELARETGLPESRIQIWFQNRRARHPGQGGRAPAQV
Binder,binding result (DUX4-s),binding result (DUX4-fl [3]),other results
TRIM48 (dsDNA) DNA 1: AGGAGTGATGATAATTTAATCAGCCGTGCAA DNA 2: TTGCACGGCTGATTAAATTATCATCACTCCT,binds,–,binding result (DUX4-fl [1]): binds
TRIM48mut (dsDNA) DNA 1: AGGAGTGATGATACTTTTATGAGCCGTGCAA DNA 2: TTGCACGGCTCATAAAAGTATCATCACTCCT,–,–,binding result (DUX4-fl [2]): no binding
CSF1R (dsDNA) DNA 1: CCAGGTGGAGATAATTGAATCATGGGGGCAG DNA 2: CTGCCCCCATGATTCAATTATCTCCACCTGG,binds,binds,–
CSF1Rmut (dsDNA) DNA 1: CCAGGTGGAGATACTTGTATGATGGGGGCAG DNA 2: CTGCCCCCATCATACAAGTATCTCCACCTGG,–,–,binding result (DUX4-fl [4]): no binding
THE1D (dsDNA) DNA 1: CCTGTGGGAGGTAATCCAATCATGGAGGCAG DNA 2: CTGCCTCCATGATTGGATTACCTCCCACAGG,–,binds,–
THE1Dmut (dsDNA) DNA 1: CCTGTGGGAGGTACTCCTATGATGGAGGCAG DNA 2: CTGCCTCCATCATAGGAGTACCTCCCACAGG,–,–,binding result (DUX4-fl [5]): no binding
